Data set [1] concerns the molecule itself. Put plainly: negative-stain transmission electron microscopy; as a2 but with 2-5 mM ATP or ATPγS, with or without oligo(dT)30.
Data set [2] concerns the molecule itself. Nature of the data set: SEC; Superdex200 HR 10/30, 20 mM Tris pH 7.5, 150 mM KCl, 1 mM DTT; about 40 ug RECQ1 loaded at 1 uM; alone, with oligo(dT)40 or oligo(dT)30 and/or 1 mM ATP or ATPγS in the elution buffer; also 100-500 mM salt and 0.1-35 uM protein.

Where a chain is given by its changes, count along the chain named. In names and notes the source's numbering stands.

B1: RECQ1(K119R) (human RECQ1, ATPase-deficient Walker A mutant) (enzyme, UniProt P46063 1-649, looked up)
chain: MASVSALTEELDSITSELHAVEIQIQELTERQQELIQKKKVLTKKIKQCLEDSDAGASNEYDSSPAAWNKEDFPWSGKVKDILQNVFKLEKFRPLQLETINVTMAGKEVFLVMPTGGGRSLCYQLPALCSDGFTLVICPLISLMEDQLMVLKQLGISATMLNASSSKEHVKWVHAEMVNKNSELKLIYVTPEKIAKSKMFMSRLEKAYEARRFTRIAVDEVHCCSQWGHDFRPDYKALGILKRQFPNASLIGLTATATNHVLTDAQKILCIEKCFTFTASFNRPNLYYEVRQKPSNTEDFIEDIVKLINGRYKGQSGIIYCFSQKDSEQVTVSLQNLGIHAGAYHANLEPEDKTTVHRKWSANEIQVVVATVAFGMGIDKPDVRFVIHHSMSKSMENYYQESGRAGRDDMKADCILYYGFGDIFRISSMVVMENVGQQKLYEMVSYCQNISKCRRVLMAQHFDEVWNSEACNKMCDNCCKDSAFERKNITEYCRDLIKILKQAEELNEKLTPLKLIDSWMGKGAAKLRVAGVVAPTLPREDLEKIIAHFLIQQYLKEDYSFTAYATISYLKIGPKANLLNNEAHAITMQVTKSTQNSFRAESSQTCHSEQGDKKMEEKNSGNFQKKAANMLQQSGSKNTGAKKRKIDDA
notes: human RECQ1 helicase (alias RECQL), the 649-amino acid variant, with K119R in ATPase motif I (Walker A box); also called RECQ1 K119R mutant; His6-K119R RECQ1 mutant; source: baculovirus/Sf9 cells, purified; not shown: His6, N-terminal, kept
With B1, in data set [1], the binding result was “binds”.

B2: untagged RECQ1 (utRECQ1; human RECQ1 helicase after removal of the N-terminal His6-tag) (enzyme, UniProt P46063 1-649, looked up)
chain: B1 chain with R119K
notes: human RECQ1 helicase (alias RECQL), the 649-amino acid variant; also called untagged wild-type RECQ1; source: baculovirus/Sf9 cells, purified; not shown: His6, N-terminal, cleaved
Regarding B2, in data set [2], the binding result is given as “binds”.

Source of the values: article PMC1769423, “Different Quaternary Structures of Human RECQ1 Are Associated with Its Dual Enzymatic Activity” (PLoS Biology, 2007).
